# Patent US20130115227A1 (Merck Sharp & Dohme, published 2013)
# Residue numbers refer to the chain shown, from its start.
# B1: anti-ADDL antibody 19.3 (antibody, human IgG2, kappa, V domains shown)
# VH: EVQLVESGGGLVQPGGSLRLSCAASGFTFSSFGMHWVRQAPGKGLEWVAYISRGSSTIYYADTVKGRFTISRDNAKNSLYLQMNSLRAEDTAVYYCARGITTALDYWGQGTLVTVSS
# VL: DVVMTQSPLSLPVTPGEPASISCRSSQSIVHSNGNTYLEWYLQKPGQSPQLLIYKASNRFSGVPDRFSGSGSGTDFTLKISRVEAEDVGVYYCFQGSRLGPSFGQGTKLEIKR
# notes: The same paragraph also says all VH were cloned into an IgG1 expression vector; copies: 2 + 2
# B2: Fab clone 14.2 (phage-displayed) (Fab, V domains shown)
# VH: B1 VH
# VL: DVVMTQSPLSLPVTPGEPASISCRSSQSIVHSNGNTYLEWYLQKPGQSPQLLIYKASNRFSGVPDRFSGSGSGTDFTLKISRVEAEDVGVYYCFQGSRVPPGFGQGTKLEIK
# notes: VH is deduced from the parental VH being kept in the library
# B3: humanized anti-ADDL antibody h3B3 (antibody, V domains shown)
# VH: B1 VH
# VL: B2 VL with R98H, G102T
# notes: Parental antibody; also called humanized 3B3; h3B3 (parental)
# B4: anti-ADDL antibody 19.3T33 (antibody, V domains shown)
# VH: B1 VH
# VL: B1 VL with N33T
# B5: Fab clone 11.4 (phage-displayed) (Fab, V domains shown)
# VH: B1 VH
# VL: B2 VL with P101V, G102R
# notes: as for B2
# B6: Fab clone 7.2 (phage-displayed) (Fab, V domains shown)
# VH: B1 VH
# VL: B2 VL with R98Y, V99A
# notes: as for B2
# B7: anti-ADDL antibody 19.3S33 (antibody, V domains shown)
# VH: B1 VH
# VL: B1 VL with N33S
# B8: Fab clone 9.2 (phage-displayed) (Fab, V domains shown)
# VH: B1 VH
# VL: B2 VL with V99A, G102F
# notes: as for B2
# B9: Fab clone 13.1 (phage-displayed) (Fab, V domains shown)
# VH: B1 VH
# VL: B2 VL with R98K, V99A, P100H, G102S
# notes: as for B2
# Experiments:
# [1] = target: T1, amyloid β (Aβ)-derived diffusible ligands (ADDLs) (UniProt P05067 672-713); experiment: ELISA, plate coated with ADDLs (50 pmol/well), anti-human IgG-alkaline phosphatase, luminescence; antibody kept one month at 40 °C
# T1 construct: domain: Aβ1-42; Soluble oligomers of Aβ1-42, with the number of chains per oligomer not fixed; They were prepared from HFIP film in DMSO/F12 and enriched on a 50 kDa filter; The result sentences say 'ADDLs'; also called ADDL oligomers; soluble …
# T1 sequence (P05067 672-713 limits assumed): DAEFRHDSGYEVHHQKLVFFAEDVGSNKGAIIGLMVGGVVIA
# Description: (§1) The codon AAT for N was mutated to AGT for S in 19.3S33 (SEQ ID NO: 55), ACT for T in 19.3T33 (SEQ ID NO: 56), GAA for E in 19.3E33 (SEQ ID NO: 67), or GAT for D in 19.3D33 (SEQ ID NO: 68), and the new condons in that position were confirmed by DNA sequencing. […] The expression and purification methods were described above in this example.
# (§2) Determination of EC50. High protein binding plates (Costar, Corning, Lowell, Mass.), were coated with target ligand in PBS overnight at 4° C. The concentration of coating protein was 100 pmol/well for Aβ40 (American Peptide, Sunnyvale, Calif.) and 50 pmol/well for ADDLs. ADDLs were generated as described in Example 1B. Next day, plates were washed five times with PBS+0.05% Tween-20 (Sigma Aldrich, St. Louis, Mo.) and blocked overnight with Casein blocking buffer (ThermoScientific, Waltham, Mass.) and 0.05% Tween-20. […] After 2 hours at room temperature incubation, the plates were washed and alkaline phosphatase conjugated anti-human IgG (ThermoScientific, Waltham, Mass.) was added at 0.08 μg/ml. After 45 minutes at room temperature incubation, the plates were washed and Tropix® CDP®-Star chemiluminescent substrate (Life Technologies™, Carlsbad, Calif.) was added. Luminescence was detected after 30 minutes on an EnVision® microplate reader (PerkinElmer, Waltham, Mass.).
# [2] = target: T1, amyloid β (Aβ)-derived diffusible …; experiment: ELISA, plate coated with ADDLs (50 pmol/well), anti-human IgG-alkaline phosphatase, luminescence; antibody not stored (0 timepoint)
# Description: as §2, with “Mass.). Curve fits were completed using GraphPad Prism (GraphPad Software, Inc., San Diego, Calif.) software.” for “Mass.).”
# [3] = target: T1, amyloid β (Aβ)-derived diffusible …; experiment: ELISA, plate coated with ADDLs (50 pmol/well), anti-human IgG-alkaline phosphatase, luminescence; antibody kept one month at 25 °C
# Description: as §1, §2
# [4] = target: T1, amyloid β (Aβ)-derived diffusible …; experiment: ELISA, plate coated with ADDLs (50 pmol/well), anti-human IgG-alkaline phosphatase, luminescence; antibody kept one month at 4 °C
# Description: as §1, §2
# [5] = target: T1, amyloid β (Aβ)-derived diffusible …; experiment: phage/Fab ELISA on ADDLs, anti-M13-HRP detection
# Description: Biotinylated ADDLs (bADDLs) or monomer Aβ1-40 or Aβ1-42 was added to a high-capacity streptavidin-coated plate (Sigma-Aldrich, St. Louis, Mo.) with 100 μL per well of coating reagent in PBS at 1 μM and incubated for two hours at room temperature. The plates were washed in PBS with 0.05% Tween (six times) and then PBS alone (three times) prior to blocking wells with 5% non-fat dry milk in PBS for one hour at room temperature. The wells were then washed and a serial dilution of antibody samples added to the plates and allowed to bind for two hours at room temperature. After incubation and washing, the antibody binding was detected with a goat anti-human IgG-Fc secondary antibody conjugated to horse radish peroxidase (HRP) (1:1,000; one hour at room temperature). The HRP label was visualized with tetramethyl benzidine (Virolabs, Chantilly, Va.) as a substrate and read at 450 nm on a microplate reader.
# After each round of panning, single colonies were randomly picked to produce phage in 96-well plates. The procedures for phage preparation in 96-well plate were similar to that described above except no phage precipitation step was used. Culture plates containing colonies growing in 120 μL of 2×TY medium with 100 μg/ml ampicillin and 0.1% glucose were incubated overnight in a HiGro® shaker (Genomic Solutions, Ann Arbor, Mich.) at 30° C. with shaking at 450 rpm. The phage supernatants (about 100 μL) were directly used for analysis in the ADDL binding ELISA described above. One difference is that the binding of phage to ADDLs was detected with an anti-M13-antibody conjugated to HRP (Amersham Bioscience, GE Healthcare, Waukesha, Wis.).
# [6] = target: T1, amyloid β (Aβ)-derived diffusible …; experiment: Biacore (SPR)
# [7] = target: T1, amyloid β (Aβ)-derived diffusible …; experiment: Biacore (SPR); affinity for Aβ1-40 monomer over affinity for ADDLs
# [8] = target: T1, amyloid β (Aβ)-derived diffusible …; experiment: KinExA, equilibrium constant in solution
# [9] = target: T1, amyloid β (Aβ)-derived diffusible …; experiment: KinExA; constant for Aβ1-40 monomer over constant for ADDLs
# [10] = target: T1, amyloid β (Aβ)-derived diffusible …; experiment: ELISA, plate coated with ADDLs (50 pmol/well), 12 point antibody titration, anti-human IgG-alkaline phosphatase, luminescence
# Description: as §2, with “Mass.). Curve fits were completed using GraphPad Prism (GraphPad Software, Inc., San Diego, Calif.) software.” for “Mass.).”
binder,measurement,setting,value
B1,EC50 (read off the curve),[1],~6 nM
same,EC50 (read off the curve),[2],~1 nM
same,EC50 (read off the curve),[3],~2 nM
same,EC50 (read off the curve),[4],~2 nM
B2,binding result,[5],binds
B3,Kd,[6],10 nM
same,Ratio (Aβ monomer/ADDL),[7],10
same,Kd,[8],3.3 nM
same,Ratio (Aβ monomer/ADDL),[9],13.6
B4,binding result,[10],binds
B5,binding result,[5],binds
B6,binding result,[5],binds
B7,binding result,[10],binds
B8,binding result,[5],binds
B9,binding result,[5],binds
